In patent publication US20120058906A1:

How the values were obtained:
[1] = biological target: rHuman EGF R/Fc Chimera, CF (R&D Systems Cat#344-ER) (human) (UniProt P00533); test: ECL (MSD multi-spot), Fab 145 nM; blank 357
[2] = biological target: rHuman HGF R/c-MET/Fc Chimera, CF (R&D Systems Cat#358-MT/CF) (human) (UniProt P08581); test: ECL (MSD multi-spot), Fab 145 nM; blank 357
[3] = biological target: rHuman Notch-1/Fc Chimera, CF (R&D Systems Cat#3647-TK) (human) (UniProt P46531); test: ECL (MSD multi-spot), Fab 145 nM; blank 357
[4] = biological target: rHuman Erythropoietin R/Fc Chimera, CF (R&D Systems Cat#963-ER) (human) (UniProt P19235); test: ECL (MSD multi-spot), Fab 145 nM; blank 357
rHuman Erythropoietin R/Fc Chimera, CF (R&D Systems Cat#963-ER) (human), sequence (P19235 25-250, change not shown): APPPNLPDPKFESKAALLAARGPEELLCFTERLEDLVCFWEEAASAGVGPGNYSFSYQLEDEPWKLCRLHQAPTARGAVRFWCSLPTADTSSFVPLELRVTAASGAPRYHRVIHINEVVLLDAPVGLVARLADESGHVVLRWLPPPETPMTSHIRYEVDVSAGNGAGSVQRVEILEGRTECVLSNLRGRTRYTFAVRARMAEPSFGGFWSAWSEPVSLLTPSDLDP

[5] = biological target: rHuman IGF-1 sR (IGF-1 sR), CF (R&D Systems Cat#391-GR) (human) (UniProt P08069); test: ECL (MSD multi-spot), Fab 145 nM; blank 357
[6] = biological target: rHuman P-Cadherin/Fc Chimera, CF (R&D Systems Cat#861-PC) (human) (UniProt P22223); test: ECL (MSD multi-spot), Fab 145 nM; blank 357
[7] = biological target: rHuman EGF R/Fc Chimera, CF (R&D Systems Cat#344-ER) (human) (UniProt P00533); test: ECL (MSD multi-spot), Fab 36.3 nM; blank 314
[8] = biological target: rHuman HGF R/c-MET/Fc Chimera, CF (R&D Systems Cat#358-MT/CF) (human) (UniProt P08581); test: ECL (MSD multi-spot), Fab 36.3 nM; blank 314
[9] = biological target: rHuman Notch-1/Fc Chimera, CF (R&D Systems Cat#3647-TK) (human) (UniProt P46531); test: ECL (MSD multi-spot), Fab 36.3 nM; blank 314
[10] = biological target: rHuman Erythropoietin R/Fc Chimera, CF (R&D Systems Cat#963-ER) (human) (UniProt P19235); test: ECL (MSD multi-spot), Fab 36.3 nM; blank 314
[11] = biological target: rHuman ErbB2/Fc Chimera, CF (R&D Systems Cat#1129-ER) (human) (UniProt P04626); test: ECL (MSD multi-spot), Fab 36.3 nM; blank 314
[12] = biological target: rHuman IGF-1 sR (IGF-1 sR), CF (R&D Systems Cat#391-GR) (human) (UniProt P08069); test: ECL (MSD multi-spot), Fab 36.3 nM; blank 314
[13] = biological target: rHuman P-Cadherin/Fc Chimera, CF (R&D Systems Cat#861-PC) (human) (UniProt P22223); test: ECL (MSD multi-spot), Fab 36.3 nM; blank 314
[14] = biological target: rHuman EGF R/Fc Chimera, CF (R&D Systems Cat#344-ER) (human) (UniProt P00533); test: ECL (MSD multi-spot) screen, antigen spotted on plate, Fab at 0.58 uM; blank spot 403
[15] = biological target: rHuman HGF R/c-MET/Fc Chimera, CF (R&D Systems Cat#358-MT/CF) (human) (UniProt P08581); test: as above
[16] = biological target: rHuman ErbB2/Fc Chimera, CF (R&D Systems Cat#1129-ER) (human) (UniProt P04626); test: as above
[17] = biological target: rHuman IGF-1 sR, CF (R&D Systems Cat#391-GR) (human) (UniProt P08069); test: as above
[18] = biological target: rHuman EGF R/Fc Chimera, CF (R&D Systems Cat#344-ER) (human) (UniProt P00533); test: ECL (MSD multi-spot), Fab 580 nM; blank 679
[19] = biological target: rHuman HGF R/c-MET/Fc Chimera, CF (R&D Systems Cat#358-MT/CF) (human) (UniProt P08581); test: ECL (MSD multi-spot), Fab 580 nM; blank 679
[20] = biological target: rHuman Notch-1/Fc Chimera, CF (R&D Systems Cat#3647-TK) (human) (UniProt P46531); test: ECL (MSD multi-spot), Fab 580 nM; blank 679
[21] = biological target: rHuman Erythropoietin R/Fc Chimera, CF (R&D Systems Cat#963-ER) (human) (UniProt P19235); test: ECL (MSD multi-spot), Fab 580 nM; blank 679
[22] = biological target: rHuman ErbB2/Fc Chimera, CF (R&D Systems Cat#1129-ER) (human) (UniProt P04626); test: ECL (MSD multi-spot), Fab 580 nM; blank 679
[23] = biological target: rHuman IGF-1 sR (IGF-1 sR), CF (R&D Systems Cat#391-GR) (human) (UniProt P08069); test: ECL (MSD multi-spot), Fab 580 nM; blank 679
[24] = biological target: rHuman P-Cadherin/Fc Chimera, CF (R&D Systems Cat#861-PC) (human) (UniProt P22223); test: ECL (MSD multi-spot), Fab 580 nM; blank 679
[25] = biological target: rHuman EGF R/Fc Chimera, CF (R&D Systems Cat#344-ER) (human) (UniProt P00533); test: ECL (MSD multi-spot), Fab 9.1 nM; blank 276
[26] = biological target: rHuman HGF R/c-MET/Fc Chimera, CF (R&D Systems Cat#358-MT/CF) (human) (UniProt P08581); test: ECL (MSD multi-spot), Fab 9.1 nM; blank 276
[27] = biological target: rHuman Notch-1/Fc Chimera, CF (R&D Systems Cat#3647-TK) (human) (UniProt P46531); test: ECL (MSD multi-spot), Fab 9.1 nM; blank 276
[28] = biological target: rHuman Erythropoietin R/Fc Chimera, CF (R&D Systems Cat#963-ER) (human) (UniProt P19235); test: ECL (MSD multi-spot), Fab 9.1 nM; blank 276
[29] = biological target: rHuman ErbB2/Fc Chimera, CF (R&D Systems Cat#1129-ER) (human) (UniProt P04626); test: ECL (MSD multi-spot), Fab 9.1 nM; blank 276
[30] = biological target: rHuman IGF-1 sR (IGF-1 sR), CF (R&D Systems Cat#391-GR) (human) (UniProt P08069); test: ECL (MSD multi-spot), Fab 9.1 nM; blank 276
[31] = biological target: rHuman P-Cadherin/Fc Chimera, CF (R&D Systems Cat#861-PC) (human) (UniProt P22223); test: ECL (MSD multi-spot), Fab 9.1 nM; blank 276

Substance: Fab VH4-34_IGHD7-27*01_IGHJ4*01 & V1-4_IGLJ4*01
- ECL signal [1]: 856 ECL signal
- ECL signal [2]: 1170 ECL signal
- ECL signal [3]: 860 ECL signal
- ECL signal [4]: 845 ECL signal
- ECL signal [5]: 794 ECL signal
- ECL signal [6]: 850 ECL signal
- ECL signal [7]: 831 ECL signal
- ECL signal [8]: 1060 ECL signal
- ECL signal [9]: 633 ECL signal
- ECL signal [10]: 722 ECL signal
- ECL signal [11]: 1030 ECL signal
- ECL signal [12]: 799 ECL signal
- ECL signal [13]: 684 ECL signal
- ECL signal [14]: 1020
- ECL signal [15]: 1710
- ECL signal [16]: 1260
- ECL signal [17]: 1200
- ECL signal [18]: 1630 ECL signal
- ECL signal [19]: 2340 ECL signal
- ECL signal [20]: 1580 ECL signal
- ECL signal [21]: 1580 ECL signal
- ECL signal [22]: 1710 ECL signal
- ECL signal [23]: 1360 ECL signal
- ECL signal [24]: 2240 ECL signal
- ECL signal [25]: 800 ECL signal
- ECL signal [26]: 894 ECL signal
- ECL signal [27]: 754 ECL signal
- ECL signal [28]: 697 ECL signal
- ECL signal [29]: 987 ECL signal
- ECL signal [30]: 788 ECL signal
- ECL signal [31]: 589 ECL signal
